From the supplement of paper PMC10126150
± gives the standard deviation of the averaged measurements.

System: ATP
Experiment: switch fluorescence ratio, 500 uM ATP over buffer (Cy3 cluster intensity, sum of 5 cycles each) (fold (ratio)); higher = stronger signal-on switching upon ATP binding; sequences stand for … in TCGTCGGCAGCGTCAGATGTGTATAAGAGACAGTTTTTTTTTTTTTTTTTTTTTTTTT…TC
Details: aptamer strand: ATP DNA aptamer (quencher-CACCTGGGGGAGTATTGCGGAGGAAGG + anchor), 100 nM annealed; ATP concentration: 500 uM
Method in brief: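 Exposure to 500 uM ATP lasted 15 min at 22 °C before imaging, and a selection-buffer image was taken beforehand, for Cy3-labelled switching-strand clusters on a modified Illumina MiSeq flow-cell annealed to 100 nM quencher-labelled ATP aptamer. Five buffer/ATP cycles were run with NaOH stripping and re-annealing between them. The fluorescence ratio per cluster is summed target-cycle over summed buffer-cycle Cy3 intensity, averaged per switch-domain sequence. Clusters outside 100-1000 RFU were excluded.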

Sequence | switch fluorescence ratio
TTTTTGGGGC | 1.03 ± 0.072
AATAGAGGTT | 0.965 ± 0.02
GGCACGGGGG | 1.02 ± 0.008
GGTGGCTAGC | 1 ± 0.044
TGCTATGGC | 1.09 ± 0.092
GTTGTCTCCA | 0.985 ± 0.015
GCTATAAGGG | 1 ± 0.036
AACGCGCGCC | 1.01 ± 0.05
GCGTTCGTGG | 1.02 ± 0.027
CATTTAGTTG | 0.985 ± 0.042
CTCTTTTTTT | 0.991 ± 0.014
GCTAGGGTA | 0.9973 ± 0.0043
GTGGCTGTTT | 1.02 ± 0.02
GGGTCGGGAA | 1.006 ± 0.0032
TCGACGGGGG | 1.06 ± 0.081
CTATTAATGT | 0.989 ± 0.028
GAGCGTCGGA | 1.03 ± 0.12
TTTGGCCGGA | 0.985 ± 0.036
CGAACCTGGA | 1.37 ± 0.076
CAGCTACTTG | 1.05 ± 0.025
AAGGTAGAAT | 0.986 ± 0.013
CTGCTAGGGG | 1.04 ± 0.034
TGGGTTAACT | 1.02 ± 0.041
CCAAGTAGTA | 1.03 ± 0.032
AGAATTGAGG | 0.979 ± 0.016

Sequence | switch fluorescence ratio
AGGGAGAAAC | 0.984 ± 0.028
TGTTTGAAAA | 0.953 ± 0.027
GCCGGATT | 1.01 ± 0.04
TCATGGTGGG | 1 ± 0.025
GTTTTAGTTT | 0.987 ± 0.037
GGGTGTCCTT | 0.998 ± 0.042
TATTGGGTAA | 1.11 ± 0.14
GGGGATGTAC | 1.07 ± 0.077
AACGTTAGGG | 0.998 ± 0.029
TTTCTTTCTT | 1.05 ± 0.083
TAAGACGCAA | 1.62 ± 0.12
CGGCTTGCTG | 1.03 ± 0.018
TATAGTATTG | 0.9861 ± 0.0087
ATGCATCGAG | 1.01 ± 0.03
AAATCGTATG | 0.974 ± 0.034
AGGGATTGCG | 0.9971 ± 0.0093
TGGGTTGGCG | 1.04 ± 0.028
GCAGGGGATT | 1.01 ± 0.033
TTCGGTTTGT | 0.98 ± 0.032
GTGGGGGAA | 0.994 ± 0.034
CATGTTTTGC | 1.01 ± 0.065
GTAGTATGCA | 1.01 ± 0.02
GAGTAACCTG | 1.01 ± 0.071
CCTGAAATAT | 2.53 ± 1.7
ACGGTCATAT | 1.08 ± 0.027

Sequence | switch fluorescence ratio
AGAATGCTTT | 0.9971 ± 0.0034
TTACTTGTTT | 1 ± 0.023
TTTATGCTGC | 1.05 ± 0.038
GTTTTGACAT | 0.993 ± 0.0013
TACGTGGGGT | 1.01 ± 0.018
TTAAAAATGT | 0.958 ± 0.069
GGTTATTGGT | 1.02 ± 0.021
GCATCGGGGG | 0.981 ± 0.037
CCTAGTTAGT | 1.02 ± 0.034
GCAGTTGTTC | 0.981 ± 0.037
GTTTTTTAGG | 0.978 ± 0.0056
CGAGGATGTG | 0.964 ± 0.035
AACGGGGCTC | 1.04 ± 0.066
TGTTTACTTT | 0.98 ± 0.014
CATAATTGTA | 0.979 ± 0.019
ACCTGGCAAA | 1.09 ± 0.043
ATGGAACTTG | 0.9943 ± 0.0059
AGTCTTAGCA | 0.991 ± 0.049
CCCAGGAGGC | 1.08 ± 0.03
TAGTATGTGT | 0.9576 ± 0.0043
TTTTATTGCT | 0.991 ± 0.036
TGGATCTCAG | 0.982 ± 0.012
AACTATCTTT | 1.04 ± 0.033
ACATCCTTCG | 1.7 ± 0.25
AAACGGCGTT | 0.9725 ± 0.0013

Sequence | switch fluorescence ratio
ATTTCAAATT | 1.02 ± 0.028
ATGCGCAGCG | 1.04 ± 0.035
GGACCGGGAC | 1.12 ± 0.11
CTGAGCGGCT | 1.05 ± 0.051
TCCAGTGTTG | 1.08 ± 0.071
TTAGAGGGTG | 1.12 ± 0.018
TCATTTCGGC | 0.982 ± 0.032
TATGAGGTTG | 1 ± 0.03
GTTGGGGTGA | 1.05 ± 0.02
GGTACGTATG | 0.986 ± 0.036
TGGGTGGGGT | 1.01 ± 0.026
ACGATGGGAG | 1.02 ± 0.021
GGTCGTTGCT | 0.9456 ± 0.0046
AGAATAGGCG | 1.02 ± 0.022
TTTAGAATGT | 0.994 ± 0.019
GTTAAGGGGA | 0.999 ± 0.021
CCATGTGTGT | 1.0078 ± 7.5e-05
TTTTTTGGTA | 1.01 ± 0.036
AGTTGGTCTC | 1.13 ± 0.12
TGGATTATTA | 1.02 ± 0.014
GGTTAAACGG | 1.02 ± 0.013
ATGGGGGCTT | 1.02 ± 0.047
CAGGAGGGGG | 0.992 ± 0.053
ATTCTGCTGG | 1.01 ± 0.013
CATAATCCGG | 0.9679 ± 0.0022

Sequence | switch fluorescence ratio
TTGAAGGATG | 0.997 ± 0.029
AAGAATATTT | 1.01 ± 0.012
GAGTACTCCT | 1.04 ± 0.04
AAGTAGTTCG | 0.9823 ± 0.0037
AGTTTCGCGG | 0.9632 ± 0.0037
GAATTAGGGA | 1.01 ± 0.018
CCTGGGAAGA | 1.02 ± 0.017
ACGTAATGG | 1.57 ± 0.059
TTTGGGCGCC | 1 ± 0.018
GGGGGATTGG | 0.999 ± 0.032
AGGTACTGTA | 1.01 ± 0.011
TCAGTTGTAC | 1.08 ± 0.011
TCTCATTCAG | 1.06 ± 0.14
CGAGGGGGGT | 1.02 ± 0.027
GGGGGTCGCA | 0.947 ± 0.069
TCCAGTGGGA | 1.11 ± 0.087
TTTGATAATT | 1.07 ± 0.15
CGTATAACTC | 1.11 ± 0.014
ATGTTTCACA | 0.951 ± 0.011
GCCGTTATGG | 1.02 ± 0.053
TGTTGCGCCG | 0.929 ± 0.081
GGGGCTGGGT | 1.02 ± 0.031
CTAATATTAA | 0.999 ± 0.018
CGCGTTATGT | 1.03 ± 0.0081
TTTCAGCCGG | 1.04 ± 0.034

Sequence | switch fluorescence ratio
GACGGAAGAA | 1.74 ± 0.072
GGGTCATTGT | 1.03 ± 0.032
GAGGGAGGTC | 0.968 ± 0.043
GGTGGGGGCT | 0.973 ± 0.034
TTAGTGTCGA | 1.02 ± 0.04
TCTTATTTGG | 1.01 ± 0.05
AGGTCAGCTT | 1.01 ± 0.04
CAGATGAGGG | 1.005 ± 0.0057
GGGGACTTGC | 0.9913 ± 0.0045
TGACTTTTCG | 0.995 ± 0.032
CTTAATTTGA | 0.984 ± 0.058
ACTTGGGGAG | 1 ± 0.014
TTAAGCGGCG | 0.992 ± 0.016
TTCAACTTTT | 1.01 ± 0.056
AATGGGTCAT | 1.004 ± 0.0013
TGGGTTGGCT | 1.015 ± 0.0098
CCAGTTTTCC | 1.01 ± 0.036
TATGTCAAGC | 0.96 ± 0.038
TCGGGGCTGG | 1.02 ± 0.029
TGGGTTAGGG | 1.03 ± 0.044
TCCATCGGGT | 1.01 ± 0.038
TGTAAGAGTG | 0.983 ± 0.021
GAGTCAGAAT | 1.01 ± 0.013
CGGTTGATCG | 0.918 ± 0.036
GATGTAGGTT | 0.98 ± 0.029

Sequence | switch fluorescence ratio
TTGGTTTTCC | 1.01 ± 0.028
GGTCGGGGTT | 1.02 ± 0.034
TCGGAGGCTT | 1 ± 0.027
TATATTTAGC | 1 ± 0.033
CGACGGAAGG | 1.25 ± 0.06
GGCGTCTATC | 1.01 ± 0.0096
ACTCGCGGGT | 1.04 ± 0.021
GGCGCGGCGG | 1.02 ± 0.068
TGACTGGACG | 1 ± 0.028
GTAAGGGTTG | 0.961 ± 0.012
TTAATTCGCT | 1.04 ± 0.098
TTGACGACGG | 1.01 ± 0.048
ACAGGGTTTC | 0.985 ± 0.015
ATTAGGGACT | 0.992 ± 0.035
TTTGCTTTTC | 0.994 ± 0.05
ATCAGATTGG | 0.989 ± 0.0099
ATCGTTTCGT | 1.02 ± 0.019
TGCAGCGTTC | 1.27 ± 0.053
TAAAGGTCAT | 0.9959 ± 0.0018
ATATGGGCTG | 1.05 ± 0.1
TGATAGGGGT | 1.02 ± 0.05
AGGTAATACA | 1.08 ± 0.029
ATGGACTCCT | 1.04 ± 0.044
GGGTTAGGTT | 1.01 ± 0.064
AGGGTAGTAG | 1.015 ± 0.0063

Sequence | switch fluorescence ratio
ATGTTTTTGG | 1.1 ± 0.22
ACTTGTCATC | 0.992 ± 0.043
GCTGGAGCCA | 1.03 ± 0.019
GCAGTTTGGC | 1.01 ± 0.057
TAAGCCGAGG | 0.987 ± 0.016
GAAGGTATTT | 0.9517 ± 0.0056
AATCGAGTGG | 0.969 ± 0.06
TTTAAATCTC | 0.963 ± 0.014
AGAGGGATCT | 1.022 ± 0.0072
TTTTGGGAGG | 1 ± 0.054
GACTAAATGC | 1.8 ± 0.3
TGGGCGGGGT | 1.02 ± 0.031
ATTTATGCAG | 0.9992 ± 0.0035
ACCAAGAGCG | 1.05 ± 0.023
AGGGTGTTAT | 0.993 ± 0.022
GTTTTTGCTA | 1.01 ± 0.028
ATTAGAGGGG | 0.9862 ± 0.0067
TCATGTGGTA | 0.9915 ± 0.0093
ATTGCAGCTG | 0.9637 ± 0.0015
ACATGCTCCC | 1.73 ± 0.13
TGGAAAGCTG | 1.04 ± 0.025
AGGTTTGTTA | 0.987 ± 0.015
AAGTAGAGTG | 0.9834 ± 0.0013
TATAATTTTT | 1.03 ± 0.074
AAATAATTAG | 1.01 ± 0.016
